Patent US20180079808A1 (AbbVie / Abbott, published 2018)

Assays:
human IL-13 wild type [1] = biological target: T1, human IL-13 wild type (human, UniProt P35225 35-146, limits assumed); test: column 'Affinity, KD (nM)', hIL-13wt; method not given
T1 construct: also called IL-13 wt; rh IL-13

human IL-13 wild type [2] = biological target: T1, human IL-13 wild type; test: cell-based or functional assay
cynomolgus monkey rIL-13 [3] = biological target: T2, cynomolgus monkey rIL-13 (cynomolgus monkey, UniProt Q0PW92 21-132); test: cell-based or functional assay
T2 sequence (Q0PW92 entry or part of it): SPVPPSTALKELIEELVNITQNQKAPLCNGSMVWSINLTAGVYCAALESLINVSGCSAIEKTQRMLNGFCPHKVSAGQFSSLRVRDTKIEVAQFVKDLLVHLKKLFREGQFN

[4] = biological target: T3, human IL-13 variant (R130Q) (human, UniProt P35225 35-146, limits assumed); test: cell-based or functional assay
T3 sequence (P35225 35-146 limits assumed, stated change not applied): as the sequence (Q0PW92 entry or part of it) above, with S1G, K10R, V42M, N67S, R83H, V100L counted along it

[5] = biological target: T3, human IL-13 variant (R130Q); test: column 'Affinity, KD (nM)', hIL-13v; method not given
rat rIL-13 = biological target: T4, rat rIL-13 (rat, UniProt P42203 19-131, limits assumed); test: cell-based or functional assay
T4 sequence (looked up): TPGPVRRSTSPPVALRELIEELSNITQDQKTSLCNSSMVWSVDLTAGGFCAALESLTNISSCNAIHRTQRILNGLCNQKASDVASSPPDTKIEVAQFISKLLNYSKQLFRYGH

cynomolgus monkey rIL-13 [6] = biological target: T2, cynomolgus monkey rIL-13; test: cell-based or functional assay; remark: listed apart in the source
human IL-13 wild type [7] = biological target: T1, human IL-13 wild type; test: crystal structure of the complex

T1 sequence (P35225 other isoform, or with tags, fused parts or gaps limits assumed): as the sequence (Q0PW92 entry or part of it) above, with S1G, K10R, V42M, N67S, R83H, V100L, Q110R counted along it

B1: 9C11 (antibody, V domains shown)
VH: QVRLQQPGAELVRPGASVKLSCKASGYTFTSSWIHWVNQRPGQGLEWIGMIHPSDSETRLNQKFKDKATLTVDKSSSTAYMQLSSPTSEDSAVYYCASTATDFDYWGQGTTLTVSS
VL: DVVLTQTPLSLPVNIGDQASISCRSTQTLLNSDGFTYLDWYLQKPGQSPQLLIYLVSNRFSGVPDRFSGSGSGTDFTLKISRVEAEDLGVYYCFQNNYLPLTFGAGTKLELKR
In the case of B1, the Kd (human IL-13 wild type [1]) is reported as 0.112 nM, the “Potency, IC50 (neutralisation of hIL-13wt; assay not given)” value (human IL-13 wild type [2]) is reported as 0.184 nM and the “Potency, IC50 (neutralisation of Cyno IL-13; assay not given)” value (cynomolgus monkey rIL-13 [3]) is reported as 0.64 nM. The “Potency, IC50 (neutralisation of hIL-13v; assay not given)” value [4] was 0.17 nM and the Kd [5] was 0.092 nM.

B2: 13C5.5, humanized recombinant immunoglobulin IgG1 (IgG1, κ) monoclonal antibody (antibody, V domains shown)
VH: EVTLRESGPGLVKPTQTLTLTCTLYGFSLSTSDMGVDWIRQPPGKGLEWLAHIWWDDVKRYNPALKSRLTISKDTSKNQVVLKLTSVDPVDTATYYCARTVSSGYIYYAMDYWGQGTLVTVSS
VL: DIQMTQSPSSLSASVGDRVTISCRASQDIRNYLNWYQQKPGKAPKLLIFYTSKLHSGVPSRFSGSGSGTDYTLTISSLQPEDIATYYCQQGNTLPLTFGGGTKVEIK
For B2, the “IC50, in vitro neutralization” value (rat rIL-13) was 12.4 nM, the “fold lower in vitro potency compared to human rIL-13” value (rat rIL-13) was 155 fold and the “fold lower in vitro potency compared to human rIL-13” value (cynomolgus monkey rIL-13 [6]) was 51 fold. For the same binder, the “half maximal inhibitory concentration (IC50), in vitro neutralization” value (cynomolgus monkey rIL-13 [6]) was 4.1 nM.

B3: Fab portion of 13C5.5 antibody (Fab, V domains shown)
VH: B2 VH
VL: B2 VL
notes: Fab used for the crystal structure with human IL-13; also called 13C5.5 Fab
B3: binds (human IL-13 wild type [7]).

B4: 5G1 (antibody, V domains shown)
VH: QVQLQQSGAELARPGTSVKLSCKASGYTFTTYGVSWVKQRTGQGLEWIGEIYPGNYNTYYNEKFRGKATLTADKSSSTAYMQLSSLTSEDSAVYFCSRWRTSYFSDYGYFDYWGQGTTLTVSS
VL: DVVMTQTPLSLPVSLGDQASISCRSSQSLVHSHGNTYLHWYLQKPGQSPKLLIYTVSNRFSGVPDRFSGSGSGTDFTLKISRVEAEDLGVYFCSQSTHVPYTFGGGTKLEIKR
B4 was tested, and the Kd (human IL-13 wild type [1]) was 0.008 nM, the “Potency, IC50 (neutralisation of hIL-13wt; assay not given)” value (human IL-13 wild type [2]) was 0.076 nM and the “Potency, IC50 (neutralisation of Cyno IL-13; assay not given)” value (cynomolgus monkey rIL-13 [3]) was 0.612 nM. The “Potency, IC50 (neutralisation of hIL-13v; assay not given)” value [4] was 0.048 nM and the Kd [5] was 0.13 nM.
